Measurements reported in patent US20240226321A1 (ANJARIUM BIOSCIENCES, published 2024).

Target: T1, FcRn of the Lumit FcRn Binding Immunoassay (Promega) (UniProt P55899 24-297; P61769 21-119, limits assumed)
T1 construct: Bought kit reagent ('split FcRn/Tracer'); also called split FcRn
Test: Lumit FcRn Binding Immunoassay (Promega), serial dilution of EVs competing with the kit's Tracer for FcRn, luminescence as fraction of max signal
Protocol: A Lumit™ FcRn Binding Immunoassay (Promega) assay was performed with purified EVs described in Example 1 and native Hek293 EVs. […] Detection reagent was added and luminescence was detected on a plate reader.

T1 sequence (P55899 24-297 limits assumed, form in doubt, chain 1 of 2): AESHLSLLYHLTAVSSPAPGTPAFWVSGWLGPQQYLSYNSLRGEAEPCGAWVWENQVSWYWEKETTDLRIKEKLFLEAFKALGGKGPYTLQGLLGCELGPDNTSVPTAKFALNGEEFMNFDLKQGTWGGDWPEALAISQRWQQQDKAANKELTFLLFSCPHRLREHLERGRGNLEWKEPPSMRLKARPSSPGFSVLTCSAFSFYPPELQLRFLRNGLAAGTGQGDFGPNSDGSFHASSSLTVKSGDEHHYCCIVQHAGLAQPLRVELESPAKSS
T1 sequence (P61769 21-119 limits assumed, form in doubt, chain 2 of 2): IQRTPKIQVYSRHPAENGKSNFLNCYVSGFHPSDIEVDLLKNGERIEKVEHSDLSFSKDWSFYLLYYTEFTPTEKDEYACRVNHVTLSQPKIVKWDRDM

B1: targeting monobody-linker1-modified monomeric Fc-linker2-EphB2 scaffold-linker3-turboluc fusion protein, displayed on purified EVs (Fc fusion)
chain: VSDVPRDLEVVAATPTSLLISWYYPFCAFYYRITYGETGGNSPVQEFTVPRSPDTATISGLKPGVDYTITVYAVTCLGSYSRPISINYRTGGGGSGGGGSGGAPEAAGGPSVFLFPPKPKDTLMISRTPEVTCVVVDVSHEDPEVKFNWYVDGVEVHNAKTKPREEQYNSTYRVVSVLTVLHQDWLNGKEYKCKVSNKALGAPIEKTISKAKGQPREPQVYTKPPSRDELTKNQVSLSCLVKGFYPSDIAVEWESNGQPENNYKTTVPVLDSDGSFRLASYLTVDKSRWQQGNVFSCSVMHEALHNHYTQKSLSLSPGGGSGGGSGGGSGGGSRKCPRIIQNGAIFQETLSGAESTSLVAARGSCIANAEEVDVPIKLYCNGDGEWLVPIGRCMCKAGFEAVENGTVCRGCPSGTFKANQGDEACTHCPINSRTTSEGATNCVCRNGYYRADLDPLDMPCTTIPSAPQAVISSVNETSLMLEWTPPRDSGGREDAVYNIICKSCGSGRGACTRCGDNVQYAPRQLGLTEPRIYASDLLAHTQYTFEIQAVNGVTDQSPFSPQFASVNITTNQAAPSAVSIMHQVSRTVDSITLSWSQPDQPNGVILDYELQYYEKELSEYNATAIKSPTNTVTVQGLKAGAIYVFQVRARTVAGYGRYSGKMYFQTMTEAEYQTEIQEKLPLIIGSSAAGLVFLIAVVVISIVCNRRGFERADSEYTDKLQHYTSGHMTPGMKIYIDPFTYEDPNEAVREFAKEIDISCVKIEQVIGAGEFGEVCSGHLKLPGKREIFVAIKTLKSGYTEKQRRDFLSEASIMGQFDHPNVIHLEGVVTKSTPVMIITEFMENGSLDSFLRQNDGQFTVIQLVGMLRGIAAGMKYLADMNYVHRDLAARNILVNSNLVCKVSDFGLSRFLEDDTSDPTYTSALGGKIPIRWTAPEAIQYRKFTSASDVWSYGIVMWEVMSFGERPYWDMTNQDVINAIEQDYRLPPPMDCPSALHQLMLDCWQKDRNHRPKFGQIVNTLDKMIRNPNSLKAMAPLSSGINLPLGGGEAEAERGKLPGKKLPLEVLIELEANARKAGCTRGCLICLSKIKCTAKMKKYIPGRCADYGGDKKTGQAGIVGAIVDIPEISGFKEMEPMEQFIAQVDRCADCTTGCLKGLANVKCSDLLKKWLPGRCATFADKIQSEVDNIKGLAGD
notes: also called EVs expressing the modified Fc domain
Q: For B1, which “IC50 (read off the curve)” value is on record?
A: The value was about 0.2 nM.
